In experiment [1] the target is constitutively active LFA-1 expressed on Jurkat T-cell line J-β2.7/LFA-1Δ. Description: cell-based or functional assay.
For experiment [2], the target named is leukocyte function antigen-1 (LFA-1), composed of CD11a and CD18, on human white blood cells (human) (UniProt P20701). Description: cell-based or functional assay.
Chain of leukocyte function antigen-1 (LFA-1), composed of CD11a and CD18, on human white blood cells (human) (P20701 26-1170, chain 1 of 2): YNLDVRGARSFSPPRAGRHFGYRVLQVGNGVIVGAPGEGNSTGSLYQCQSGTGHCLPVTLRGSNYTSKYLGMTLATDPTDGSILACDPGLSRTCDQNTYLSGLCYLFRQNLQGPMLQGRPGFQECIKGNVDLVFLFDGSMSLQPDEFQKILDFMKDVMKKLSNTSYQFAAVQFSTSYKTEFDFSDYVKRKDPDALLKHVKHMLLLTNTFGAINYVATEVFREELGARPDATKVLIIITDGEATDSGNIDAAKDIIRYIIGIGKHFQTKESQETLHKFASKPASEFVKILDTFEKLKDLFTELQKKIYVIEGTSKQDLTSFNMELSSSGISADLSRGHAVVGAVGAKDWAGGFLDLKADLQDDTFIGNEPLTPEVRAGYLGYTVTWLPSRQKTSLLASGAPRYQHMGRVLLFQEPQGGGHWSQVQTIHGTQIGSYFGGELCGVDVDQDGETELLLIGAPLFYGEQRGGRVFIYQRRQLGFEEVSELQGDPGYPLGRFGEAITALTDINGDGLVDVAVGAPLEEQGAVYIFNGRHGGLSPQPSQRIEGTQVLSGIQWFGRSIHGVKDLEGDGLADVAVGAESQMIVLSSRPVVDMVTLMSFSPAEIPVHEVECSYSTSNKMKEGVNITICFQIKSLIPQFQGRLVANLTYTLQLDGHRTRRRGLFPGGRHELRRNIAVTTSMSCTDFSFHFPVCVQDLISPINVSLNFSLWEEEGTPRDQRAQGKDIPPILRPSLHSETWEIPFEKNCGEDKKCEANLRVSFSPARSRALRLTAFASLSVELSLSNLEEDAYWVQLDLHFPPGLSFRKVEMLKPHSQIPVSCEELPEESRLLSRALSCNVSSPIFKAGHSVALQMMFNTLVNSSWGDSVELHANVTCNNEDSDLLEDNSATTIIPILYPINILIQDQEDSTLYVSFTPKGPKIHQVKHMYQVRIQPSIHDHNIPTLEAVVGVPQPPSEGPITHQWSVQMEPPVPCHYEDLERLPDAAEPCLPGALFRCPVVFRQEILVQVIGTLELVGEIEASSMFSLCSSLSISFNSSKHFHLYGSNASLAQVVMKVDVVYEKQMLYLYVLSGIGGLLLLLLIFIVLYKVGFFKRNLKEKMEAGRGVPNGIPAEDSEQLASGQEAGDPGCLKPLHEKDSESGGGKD
Chain of leukocyte function antigen-1 (LFA-1), composed of CD11a and CD18, on human white blood cells (human) (P05107 23-769, chain 2 of 2, further chain): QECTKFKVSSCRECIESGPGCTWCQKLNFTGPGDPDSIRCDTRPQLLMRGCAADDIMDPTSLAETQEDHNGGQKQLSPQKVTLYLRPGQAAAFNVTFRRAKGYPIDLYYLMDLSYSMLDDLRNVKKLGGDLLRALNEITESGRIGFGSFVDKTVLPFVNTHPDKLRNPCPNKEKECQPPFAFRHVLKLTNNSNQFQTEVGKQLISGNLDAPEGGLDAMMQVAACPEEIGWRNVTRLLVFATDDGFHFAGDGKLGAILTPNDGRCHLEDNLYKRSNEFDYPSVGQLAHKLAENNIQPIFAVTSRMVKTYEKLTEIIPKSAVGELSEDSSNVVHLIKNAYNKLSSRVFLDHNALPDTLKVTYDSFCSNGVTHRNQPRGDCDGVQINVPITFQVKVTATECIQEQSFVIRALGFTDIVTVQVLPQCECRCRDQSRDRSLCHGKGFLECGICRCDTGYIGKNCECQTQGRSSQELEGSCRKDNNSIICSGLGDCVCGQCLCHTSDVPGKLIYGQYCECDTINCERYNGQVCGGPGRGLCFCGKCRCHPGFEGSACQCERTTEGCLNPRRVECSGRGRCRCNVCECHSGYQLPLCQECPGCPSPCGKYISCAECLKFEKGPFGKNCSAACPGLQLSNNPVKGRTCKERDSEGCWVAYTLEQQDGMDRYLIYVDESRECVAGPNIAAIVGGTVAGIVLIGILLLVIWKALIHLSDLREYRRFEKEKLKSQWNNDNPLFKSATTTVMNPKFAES

B1: leukotoxin (LtxA) of Aggregatibacter actinomycetemcomitans strain NJ4500 (protein)
chain: MATTSLLNTKQQAAQFANSVADRAKENIDAAKEQLQKALDKLGKTGKKLTLYIKNYKKGNGLTALIKAAQKLGIEVYHEGKDGPALTNGILNTGKKLLGLTERGLTLFAPELDKWIQGNKHLSNSVGSTGNLTKAIDKVQSVLGTLQAFLNTAFSGMDLDALIKARQNGKNVTDVQLAKASLNLINELIGTISSITNNVDTFSKQLNKLGEALGQVKHFGSFGDKLKNLPKLGNLGKGLGALSGVLSAISAALLLANKDADTATKAAAAAELTNKVLGNIGKAITQYLIAQRAAAGLSTTGPVAGLIASVVSLAISPLSFLGIAKQFDRARMLEEYSKRFKKFGYNGDSLLGQFYKNTGIADAAITTINTVLSAIAAGVGAASAGSLVGAPIGLLVSAITSLISGILDASKQAVFEHIANQLADKIKAWENKYGKNYFENGYDARHSAFLEDSLKLFNELREKYKTENILSITQQGWDQRIGELAGITRNGDRIQSGKAYVDYLKKGEELAKHSDKFTKQILDPIKGNIDLSGIKGSTTLTFLNPLLTAGKEERKTRQSGKYEFITELKVKGRTDWKVKGVPNSNGVYDFSNLIQHAVTRDNKVLEARLIANLGAKDDYVFVGSGSTIVNAGDGYDVVDYSKGRTGALTIDGRNATKAGQYKVERDLSGTQVLQETVSKQETKRGKVTDLLEYRNYKLDYYYTNKGFKAHDELNSVEEIIGSTLRDKFYGSKFNDVFHGHDGDDLIYGYDGDDRLYGDNGNDEIHGGQGNDKLYGGAGNDRLFGEYGNNYLDGGEGDDHLEGGNGSDILRGGSGNDKLFGNQGDDLLDGGEGDDQLAGGEGNDIYVYRKEYGHHTITEHSGDKDKLSLANINLKDVSFERNGNDLLLKTNNRTAVTFKGWFSKPNSSAGLDEYQRKLLEYAPEKDRARLKRQFELQRGKVDKSLNNKVEEIIGKDGERITSQDIDNLFDKSGNKKTISPQELAGLIKNKGKSSSLMSSSRSSSMLTQKSGLSNDISRIISATSGFGSSGKALSASPLQTNNNFNSYANSLATTAA
B1 showed a sensitivity to LtxA-mediated toxicity, J-β2.7/LFA-1Δ cells against J-β2.7/LFA-1 wt cells in experiment [1] of 10 times. In experiment [2], this molecule came in with a 50% effective dose (ED50) of LtxA against gp120-treated CD4 T cells, cell viability by cellular ATP after 20 hrs of 0.367 µg/mL; an ED50 of LtxA against mutant gp120-treated CD4 T cells, cell viability by cellular ATP after 20 hrs of 0.44 µg/mL; an ED50 of LtxA against untreated CD4 T cells, cell viability by cellular ATP after 20 hrs of 0.437 µg/mL; an IC50 of inhibition of proliferation of Jurkat cells after 72 hours (CellTiter Glo) of 0.25 µg/mL. In experiment [2], this molecule yielded a percent of CD3+ T lymphocytes expressing high levels of LFA-1 after LtxA treatment of PBMCs (approximately 11% before), flow cytometry of 0.4%; a percent of CD4 T cells activated by surface-bound anti-CD3 and anti-CD28 killed by LtxA at 390 and 780 ng/ml of 100%; a percent of untreated CD4 T cells susceptible to LtxA at 390 and 780 ng/ml of 50%.

(Values after patent US20120263644A1.)
